From US10772928B2, “Modulation and detection of a neuronal alternative splicing regulatory network for treatment and diagnosis of neurological disorders” (The Governing Council of the University of Toronto, priority 2014, dated 2020)

T1: nSR100 (Mus musculus, UniProt Q8BKA3)
T1 construct: host or cells: mouse N2A cells
T1 sequence (Q8BKA3 1-608): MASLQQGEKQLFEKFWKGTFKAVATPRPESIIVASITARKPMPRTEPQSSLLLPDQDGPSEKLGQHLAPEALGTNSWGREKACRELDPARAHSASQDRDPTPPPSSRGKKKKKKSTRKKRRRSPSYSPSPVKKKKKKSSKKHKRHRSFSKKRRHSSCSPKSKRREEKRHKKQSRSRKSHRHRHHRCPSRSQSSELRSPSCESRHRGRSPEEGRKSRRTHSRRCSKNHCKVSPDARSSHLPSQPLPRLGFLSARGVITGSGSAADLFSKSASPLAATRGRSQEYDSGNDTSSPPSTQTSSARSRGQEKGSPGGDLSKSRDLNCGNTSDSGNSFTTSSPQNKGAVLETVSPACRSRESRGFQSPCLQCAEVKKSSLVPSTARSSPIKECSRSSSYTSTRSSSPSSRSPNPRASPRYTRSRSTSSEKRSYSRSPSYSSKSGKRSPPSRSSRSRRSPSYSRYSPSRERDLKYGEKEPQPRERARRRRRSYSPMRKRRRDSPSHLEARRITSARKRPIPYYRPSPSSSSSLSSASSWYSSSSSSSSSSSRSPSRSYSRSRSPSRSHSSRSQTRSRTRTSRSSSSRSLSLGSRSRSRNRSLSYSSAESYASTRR

B1: Cwc27 (protein, UniProt Q3TKY6 2-469, looked up)
Spliceosome-associated …: SNIYIQEPPTNGKVLLKTTAGDIDIELWSKEAPKACRNFIQLCLEAYYDNTIFHRVVPGFIVQGGDPTGTGTGGESIYGAPFKDEFHSRLRFNRRGLVAMANAGPHDNGSQFFFTLGRADELNNKHTIFGKVTGDTVYNMLRLTEVDIDDEERPRNPHRIKSCEVLFNPFDDITPREIKKPKNEKPEEEVKKLKPKGTKNFSLLSFGEEAEEEEEEVNRVSQSMKGRSKSSHDLLKDDPHLSSVPAVESEKDDATGDLEDDGEDDSAERDEYMEDDEKNLMRERIAKRLKKDASASVKSAGDGEKKPASRSEELRKEARQLKRELLAAKQKKETAIKVEEGREEEEAAPDGAVAEYRREKQKYEALRKQQPKKGTSREDQTLALLSQFKSKLTQAITETPENSVPEAEVEDDEGWMSHVLQFEDKTRKVKDASMQDSDTFEIYDPRNPVNKRRREESKKLLREKKERR
B2: Ap2a1 (protein, UniProt P17426 1-977, looked up)
AP-2 complex subunit alpha-1: MPAVSKGDGMRGLAVFISDIRNCKSKEAEIKRINKELANIRSKFKGDKALDGYSKKKYVCKLLFIFLLGHDIDFGHMEAVNLLSSNKYTEKQIGYLFISVLVNSNSELIRLINNAIKNDLASRNPTFMCLALHCIANVGSREMGEAFAADIPRILVAGDSMDSVKQSAALCLLRLYKASPDLVPMGEWTARVVHLLNDQHMGVVTAAVSLITCLCKKNPDDFKTCISLAVSRLSRIVSSASTDLQDYTYYFVPAPWLSVKLLRLLQCYPPPEDAAVKGRLVECLETVLNKAQEPPKSKKVQHSNAKNAILFETISLIIHYDSEPNLLVRACNQLGQFLQHRETNLRYLALESMCTLASSEFSHEAVKTHIDTVINALKTERDVSVRQRAADLLYAMCDRSNAKQIVSEMLRYLETADYAIREEIVLKVAILAEKYAVDYSWYVDTILNLIRIAGDYVSEEVWYRVLQIVTNRDDVQGYAAKTVFEALQAPACHENMVKVGGYILGEFGNLIAGDPRSSPPVQFSLLHSKFHLCSVATRALLLSTYIKFINLFPETKATIQGVLRAGSQLRNADVELQQRAVEYLTLSSVASTDVLATVLEEMPPFPERESSILAKLKRKKGPGAASALDDSRRDTSSNDINGGVEPTPSTVSTPSPSADLLGLRAAPPPAAPPAPVGGNLLVDVFSDGPTAQPSLGPTPEEAFLSELEPPAPESPMALLADPAPAADPGPEDIGPPIPEADELLNKFVCKNSGVLFENQLLQIGVKSEFRQNLGRMYLFYGNKTSVQFQNFLPTVVHPGDLQTQLAVQTKRVAAQVDGGAQVQQVLNIECLRDFLTPPLLSVRFRYGGTAQSLTLKLPVTINKFFQPTEMAAQDFFQRWKQLSLPLQEAQKIFKANHPMDAEVTKAKLLGFGSALLDNVDPNPENFVGAGIIQTKALQVGCLLRLEPNAQAQMYRLTLRTSKEPVSRHLCELLAQQF
B3: Rbm39 (protein, UniProt Q8VH51 2-530, looked up)
RNA-binding protein 39: ADDIDIEAMLEAPYKKDENKLNSANGHEERSKKRKKSKSRSRSHERKRSKSKERKRSRDRERKKSKSRERKRSRSKERRRSRSRSRDRRFRGRYRSPYSGPKFNSAIRGKIGLPHSIKLSRRRSRSKSPFRKDKSPVREPIDNLTPEERDARTVFCMQLAARIRPRDLEEFFSTVGKVRDVRMISDRNSRRSKGIAYVEFVDVSSVPLAIGLTGQRVLGVPIIVQASQAEKNRAAAMANNLQKGSAGPMRLYVGSLHFNITEDMLRGIFEPFGRIESIQLMMDSETGRSKGYGFITFSDSECAKKALEQLNGFELAGRPMKVGHVTERTDASSASSFLDSDELERTGIDLGTTGRLQLMARLAEGTGLQIPPAAQQALQMSGSLAFGAVAEFSFVIDLQTRLSQQTEASALAAAASVQPLATQCFQLSNMFNPQTEEEVGWDTEIKDDVIEECNKHGGVIHIYVDKNSAQGNVYVKCPSIAAAIAAVNALHGRWFAGKMITAAYVPLPTYHNLFPDSMTATQLLVPSRR
B4: Rnps1 (protein, UniProt Q99M28 1-305, looked up)
RNA-binding protein with …: MDLSGVKKKSLLGVKENNKKSSTRAPSPTKRKDRSDEKSKDRSKDKGATKESSEKDRGRDKTRKRRSASSGSSSTRSRSSSTSSSGSSTSTGSSSGSSSSSASSRSGSSSTSRSSSSSSSSGSPSPSRRRHDNRRRSRSKSKPPKRDEKERKRRSPSPKPTKVHIGRLTRNVTKDHIMEIFSTYGKIKMIDMPVERMHPHLSKGYAYVEFENPDEAEKALKHMDGGQIDGQEITATAVLAPWPRPPPRRFSPPRRMLPPPPMWRRSPPRMRRRSRSPRRRSPVRRRSRSPGRRRHRSRSSSNSSR
B5: Plk1 (protein, UniProt Q07832 1-603, looked up)
Serine/threonine-protein …: MNAAAKAGKLARAPADLGKGGVPGDAVPGAPVAAPLAKEIPEVLVDPRSRRQYVRGRFLGKGGFAKCFEISDADTKEVFAGKIVPKSLLLKPHQKEKMSMEISIHRSLAHQHVVGFHDFFEDSDFVFVVLELCRRRSLLELHKRRKALTEPEARYYLRQIVLGCQYLHRNQVIHRDLKLGNLFLNEDLEVKIGDFGLATKVEYEGERKKTLCGTPNYIAPEVLSKKGHSFEVDVWSIGCIMYTLLVGKPPFETSCLKETYLRIKKNEYSIPKHINPVAASLIQKMLQTDPTARPTIHELLNDEFFTSGYIPARLPITCLTIPPRFSIAPSSLDPSSRKPLKVLNKGVENPLPDRPREKEEPVVRETNEAIECHLSDLLQQLTSVNASKPSERGLVRQEEAEDPACIPIFWVSKWVDYSDKYGLGYQLCDNSVGVLFNDSTRLILYNDGDSLQYIERDGTESYLTVSSHPNSLMKKITLLNYFRNYMSEHLLKAGANITPREGDELARLPYLRTWFRTRSAIILHLSNGTVQINFFQDHTKLILCPLMAAVTYINEKRDFQTYRLSLLEEYGCCKELASRLRYARTMVDKLLSSRSASNRLKAS

Target: T1, nSR100
Assay: AP-MS nSR100 interaction partners from mouse N2A cells (Table 5)
Format: binding
Conditions: for AvgP (average of the SAINT scores) / MaxP (maximal SAINT score): bait Srrm4; for FoldChange between the prey Avg spectra of the bait and control purifications: bait Srrm4, 0.1 added to prevent division by 0; for AvgSpec (average number of spectra per replicate): bait Srrm4, 2 replicates; for Spectra (number of spectra for the prey in the purification of the bait): AP-MS; for SpecSum: bait Srrm4, sum of spectra over 2 replicates
[1] = bait Srrm4, biological replicate 1 (first number of the cell)
[2] = bait Srrm4, biological replicate 2 (second number of the cell)

From the text: By applying affinity purification coupled to mass-spectrometry (AP-MS), several interaction nSR100 partner proteins were detected that provide insight into mechanisms of post-translational regulation of nSR100 levels.

Molecule	AvgP (average of the SAINT scores)	MaxP (maximal SAINT score)	FoldChange between the prey Avg spectra of the bait and control purifications	AvgSpec (average number of spectra per replicate)	Spectra (number of spectra for the prey in the purification of the bait) [1]	Spectra (number of spectra for the prey in the purification of the bait) [2]	SpecSum
B1	1	1	85	8.5	6	11	17
B2	1	1	7.2	54	46	62	108
B3	1	1	5.46	65.5	65	66	131
B4	1	1	17	25.5	26	25	51
B5	1	1	430	43	43|43	43|43	86
